In article PMC3404088, “Development of a Small D-Enantiomeric Alzheimer’s Amyloid-β Binding Peptide Ligand for Future In Vivo Imaging Applications” (PLoS ONE, 2012):
Square brackets hold non-standard residues; d marks the D form. Primed or numbered codes have the meaning given here. Ends that are not written are not given here. FITC′ = fluorescein isothiocyanate (ϕ)

B1: [^19F]-ACI-89-Kϕ (peptide)
peptide: [dP][dS][dH][dY][dR][dH][dI][dS][dP][dA][dQ][dK][dK](FITC′)
modifications: also: [19F]-4-fluorobenzoyl label, place not given here
notes: D-enantiomeric derivative of ACI-80 (D1): Q1P, V12K, added C-terminal lysine, fluorinated; also called D1-Q1P-V12K-K[^19F]ϕ; source: synthetic peptide, reacted with [^19F]-N-succinimidyl-4-fluorobenzoate (SFB), HPLC purified
B2: ACI-89-Kϕ (peptide)
peptide: [dP][dS][dH][dY][dR][dH][dI][dS][dP][dA][dQ][dK][dK](FITC′)
notes: D-enantiomeric derivative of ACI-80 (D1): Q1P, V12K, added C-terminal lysine; also called D1-Q1P-V12K-Kϕ; source: synthetic peptide (JPT Peptide Technologies GmbH, Berlin)
B3: ACI-80-Kϕ (peptide)
peptide: [dQ][dS][dH][dY][dR][dH][dI][dS][dP][dA][dQ][dV][dK](FITC′)
notes: D-enantiomeric peptide ACI-80 (D1), selected by mirror image phage display on aggregated Aβ1–42, with an added C-terminal lysine; also called D1-Kϕ; source: synthetic peptide (JPT Peptide Technologies GmbH, Berlin)
B4: ACI-83-Kϕ (peptide)
peptide: [dP][dS][dH][dY][dR][dH][dI][dS][dP][dA][dQ][dV][dK](FITC′)
notes: D-enantiomeric derivative of ACI-80 (D1): Q1P, added C-terminal lysine; also called D1-Q1P-Kϕ; source: synthetic peptide (JPT Peptide Technologies GmbH, Berlin)
B5: ACI-86-Kϕ (peptide)
peptide: [dP][dS][dF][dY][dR][dH][dI][dS][dP][dA][dQ][dV][dK](FITC′)
notes: D-enantiomeric derivative of ACI-80 (D1): Q1P, H3F, added C-terminal lysine; also called D1-Q1P-H3F-Kϕ; source: synthetic peptide (JPT Peptide Technologies GmbH, Berlin)
B6: ACI-87-Kϕ (peptide)
peptide: [dQ][dS][dH][dY][dR][dH][dI][dS][dP][dA][dQ][dK][dK](FITC′)
notes: D-enantiomeric derivative of ACI-80 (D1): V12K, added C-terminal lysine; also called D1-V12K-Kϕ; source: synthetic peptide (JPT Peptide Technologies GmbH, Berlin)
B7: [^19F]-ACI-87-Kϕ (peptide)
peptide: [dQ][dS][dH][dY][dR][dH][dI][dS][dP][dA][dQ][dK][dK](FITC′)
modifications: also: [19F]-4-fluorobenzoyl label, place not given here
notes: D-enantiomeric derivative of ACI-80 (D1): V12K, added C-terminal lysine, fluorinated; The text says V12K was made to enable fluorination; also called D1-V12K-K[^19F]ϕ; source: synthetic peptide, reacted with [^19F]-N-succinimidyl-4-fluorobenzoate (SFB), HPLC purified
B8: ACI-82-Kϕ (peptide)
peptide: [dS][dH][dY][dR][dH][dI][dS][dP][dA][dQ][dV][dK](FITC′)
notes: D-enantiomeric derivative of ACI-80 (D1): N-terminal glutamine deleted (Q1X), added C-terminal lysine; also called D1-Q1X-Kϕ; source: synthetic peptide (JPT Peptide Technologies GmbH, Berlin)
B9: ACI-85-Kϕ (peptide)
peptide: [dS][dF][dY][dR][dH][dI][dS][dP][dA][dQ][dV][dK](FITC′)
notes: D-enantiomeric derivative of ACI-80 (D1): N-terminal glutamine deleted (Q1X), H3F, added C-terminal lysine; also called D1-Q1X-H3F-Kϕ; source: synthetic peptide (JPT Peptide Technologies GmbH, Berlin)
B10: ACI-88-Kϕ (peptide)
peptide: [dS][dH][dY][dR][dH][dI][dS][dP][dA][dQ][dK][dK](FITC′)
notes: D-enantiomeric derivative of ACI-80 (D1): N-terminal glutamine deleted (Q1X), V12K, added C-terminal lysine; also called D1-Q1X-V12K-Kϕ; source: synthetic peptide (JPT Peptide Technologies GmbH, Berlin)
B11: [^19F]-ACI-88-Kϕ (peptide)
peptide: [dS][dH][dY][dR][dH][dI][dS][dP][dA][dQ][dK][dK](FITC′)
modifications: also: [19F]-4-fluorobenzoyl label, place not given here
notes: D-enantiomeric derivative of ACI-80 (D1): N-terminal glutamine deleted (Q1X), V12K, added C-terminal lysine, fluorinated; also called D1-Q1X-V12K-K[^19F]ϕ; source: synthetic peptide, reacted with [^19F]-N-succinimidyl-4-fluorobenzoate (SFB), HPLC purified

Each binder was assayed against T1, Aβ1–42 peptide film (mostly monomeric Aβ1–42) (UniProt P05067 672-713) (assay: ELISA; Aβ1–42 peptide film (mostly monomers) coated on the plate (10 µg/ml, bicarbonate-carbonate buffer pH 9.6); D-compounds from 10 µg/ml, 2 h at 37°C; detected by anti-fluorescein isothiocyanate-AP, pNPP 2.5 h). Details: both partners purified.
T1 construct: amyloid-β peptide Aβ1–42, cut from the amyloid precursor protein (APP), freshly dissolved peptide film containing mostly monomers and smaller oligomers; Same peptide as m14, not fibrillised; also called Aβ1–42 monomers; Aβ peptide film; source: bought: Bachem (lyophilized powder); HFIP film, reconstituted with 0.54% DMSO in PBS
T1 sequence (P05067 672-713): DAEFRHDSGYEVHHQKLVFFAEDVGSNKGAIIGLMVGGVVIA

First: B1
Second: B2
The “% binding relative to ACI-80-Kϕ” value of the first is higher: 243% for the first, 216% for the second.

Going from B3 to B4, the “% binding relative to ACI-80-Kϕ” value rises from 100% to 214%.

First: B5
Second: B6
The “% binding relative to ACI-80-Kϕ” value of the first is higher: 163% for the first, 122% for the second.

Compared with B7, B8 is lower in “% binding relative to ACI-80-Kϕ” value: 176% for the first, 167% for the second.

Compared with B9, B10 is higher in “% binding relative to ACI-80-Kϕ” value: 129% for the first, 263% for the second.

B11 was tested, and the “% binding relative to ACI-80-Kϕ” value was 214%.

Compared with B1, B2 is lower in “binding value (ELISA, 10 ug/mL compound)” value: 1.19 for the first, 1.06 for the second.

Going from B3 to B4, the “binding value (ELISA, 10 ug/mL compound)” value rises from 0.49 to 1.05.

Going from B5 to B6, the “binding value (ELISA, 10 ug/mL compound)” value falls from 0.8 to 0.79.

Compared with B7, B8 is lower in “binding value (ELISA, 10 ug/mL compound)” value: 0.86 for the first, 0.82 for the second.

First: B9
Second: B10
The “binding value (ELISA, 10 ug/mL compound)” value of the first is lower: 0.63 for the first, 1.29 for the second.

In the case of B11, the “binding value (ELISA, 10 ug/mL compound)” value is reported as 1.05.

Each binder was assayed against T2, Aβ1–42 fibrils (UniProt P05067 672-713) (assay: ELISA; Aβ1–42 fibrils coated on the plate (10 µg/ml, bicarbonate-carbonate buffer pH 9.6); D-compounds from 10 µg/ml, 2 h at 37°C; detected by anti-fluorescein isothiocyanate-AP, pNPP 2.5 h). Details: both partners purified.
T2 construct: amyloid-β peptide Aβ1–42, cut from the amyloid precursor protein (APP), in fibrillar form; Aggregated (fibrillar) state of the same peptide as m15; also called fibrillar Aß1–42; Aβ fibrils; source: bought: JPT Biotech or Bachem AG (HPLC purified peptide); fibrils formed at 37°C (7 days in PBS pH 7.4 for SPR; five days in 50 mM Tris-HCl pH 7.4 for ELISA)
T2 sequence (P05067 672-713): as above

First: B1
Second: B2
The “% binding relative to ACI-80-Kϕ” value of the first is higher: 207% for the first, 165% for the second.

First: B3
Second: B4
The “% binding relative to ACI-80-Kϕ” value of the first is lower: 100% for the first, 167% for the second.

First: B5
Second: B6
The “% binding relative to ACI-80-Kϕ” value of the first is higher: 138% for the first, 103% for the second.

Going from B7 to B8, the “% binding relative to ACI-80-Kϕ” value rises from 140% to 142%.

Going from B9 to B10, the “% binding relative to ACI-80-Kϕ” value rises from 111% to 198%.

For B11, the “% binding relative to ACI-80-Kϕ” value was 196%.

Compared with B1, B2 is lower in “binding value (ELISA, 10 ug/mL compound)” value: 1.86 for the first, 1.49 for the second.

Compared with B3, B4 is higher in “binding value (ELISA, 10 ug/mL compound)” value: 0.9 for the first, 1.5 for the second.

Going from B5 to B6, the “binding value (ELISA, 10 ug/mL compound)” value falls from 1.24 to 0.93.

First: B7
Second: B8
The “binding value (ELISA, 10 ug/mL compound)” value of the first is lower: 1.26 for the first, 1.28 for the second.

Going from B9 to B10, the “binding value (ELISA, 10 ug/mL compound)” value rises from 1 to 1.78.

With B11 the “binding value (ELISA, 10 ug/mL compound)” value was 1.76.

What follows are binders tested against T2, Aβ1–42 fibrils (assay: SPR; Biacore T100, single-cycle mode, 25°C; Aβ1–42 fibrils immobilised on a CM5 chip by amine coupling; PBS pH 7.4, 30 µl/min; 100 to 62500 nM in fivefold steps, 60 s each; heterogeneous ligand model). Details: both partners purified.

Going from B2 to B3, the “K D1 (heterogeneous ligand model, site 1)” value rises from 8e-06 to 5.38e-05.

Compared with B6, B10 is lower in “K D1 (heterogeneous ligand model, site 1)” value: 8.93e-06 for the first, 4.22e-07 for the second.

Going from B2 to B3, the “K D2 (heterogeneous ligand model, site 2)” value rises from 3.53e-06 to 0.000115.

Going from B6 to B10, the “K D2 (heterogeneous ligand model, site 2)” value rises from 2.59e-05 to 5.95e-05.

First: B2
Second: B3
The “k off1 (heterogeneous ligand model, site 1)” value of the first is higher: 0.162 for the first, 0.0252 for the second.

Going from B6 to B10, the “k off1 (heterogeneous ligand model, site 1)” value rises from 0.00184 to 0.00722.

Compared with B2, B3 is higher in “k off2 (heterogeneous ligand model, site 2)” value: 0.0118 for the first, 1.58 for the second.

Going from B6 to B10, the “k off2 (heterogeneous ligand model, site 2)” value rises from 0.0407 to 0.0553.

First: B2
Second: B3
The “k on1 (heterogeneous ligand model, site 1)” value of the first is higher: 20300 for the first, 469 for the second.

Going from B6 to B10, the “k on1 (heterogeneous ligand model, site 1)” value rises from 206 to 17100.

Compared with B2, B3 is higher in “k on2 (heterogeneous ligand model, site 2)” value: 3340 for the first, 13700 for the second.

Going from B6 to B10, the “k on2 (heterogeneous ligand model, site 2)” value falls from 1570 to 930.

These binders were tested against T2, Aβ1–42 fibrils (assay: SPR; Biacore 1000; Aβ1–42 fibrils (6800 RU) immobilised on a CM5 chip by amine coupling; PBS pH 7.4; analytes 50 µg/ml, 5 µl/min for 2 minutes, ambient temperature; semi-quantitative: response in % of ACI-80-Kϕ). Details: both partners purified.

Compared with B1, B2 is higher in “Dissociation [%] (response 60 s after end of injection, relative to ACI-80-Kϕ)” value: 0% for the first, 533% for the second.

Compared with B4, B5 is lower in “Dissociation [%] (response 60 s after end of injection, relative to ACI-80-Kϕ)” value: 200% for the first, 40% for the second.

Going from B6 to B7, the “Dissociation [%] (response 60 s after end of injection, relative to ACI-80-Kϕ)” value falls from 443% to 67%.

Going from B8 to B9, the “Dissociation [%] (response 60 s after end of injection, relative to ACI-80-Kϕ)” value falls from 300% to 40%.

Going from B10 to B11, the “Dissociation [%] (response 60 s after end of injection, relative to ACI-80-Kϕ)” value rises from 667% to 1230%.

First: B1
Second: B2
The “Interaction [%] (maximal response during injection, relative to ACI-80-Kϕ)” value of the first is lower: 476% for the first, 518% for the second.

First: B4
Second: B5
The “Interaction [%] (maximal response during injection, relative to ACI-80-Kϕ)” value of the first is higher: 600% for the first, 21% for the second.

Compared with B6, B7 is lower in “Interaction [%] (maximal response during injection, relative to ACI-80-Kϕ)” value: 324% for the first, 153% for the second.

First: B8
Second: B9
The “Interaction [%] (maximal response during injection, relative to ACI-80-Kϕ)” value of the first is higher: 393% for the first, 229% for the second.

First: B10
Second: B11
The “Interaction [%] (maximal response during injection, relative to ACI-80-Kϕ)” value of the first is higher: 365% for the first, 294% for the second.
